Test results from patent publication US20230192890A1.

Key:
[1] = biological target: full-length recombinant mouse PAD4 (mouse) (UniProt Q9Z183); test: ELISA, mouse PAD4 on plate, antibody 0.0039063 ug/mL
[2] = biological target: full-length recombinant mouse PAD4 (mouse) (UniProt Q9Z183); test: ELISA, mouse PAD4 on plate, antibody 0.0002441 ug/mL
[3] = biological target: full-length recombinant mouse PAD4 (mouse) (UniProt Q9Z183); test: ELISA, mouse PAD4 on plate, antibody 0.0625 ug/mL
[4] = biological target: full-length recombinant mouse PAD4 (mouse) (UniProt Q9Z183); test: ELISA, mouse PAD4 on plate, antibody 0.0009766 ug/mL
[5] = biological target: full-length recombinant mouse PAD4 (mouse) (UniProt Q9Z183); test: ELISA, mouse PAD4 on plate, antibody 0.25 ug/mL
[6] = biological target: full-length recombinant mouse PAD4 (mouse) (UniProt Q9Z183); test: ELISA, mouse PAD4 on plate, antibody 0.015625 ug/mL
[7] = biological target: full-length recombinant mouse PAD4 (mouse) (UniProt Q9Z183); test: ELISA, mouse PAD4 on plate, antibody 1 ug/mL
[8] = biological target: T1, Ala mutant SEQ ID NO: 36 (human); test: ELISA, peptide on plate (10 ug/mL)
T1 sequence (peptide): EENMDDQWMADEMEIGY

[9] = biological target: T2, Ala mutant SEQ ID NO: 38 (human); test: ELISA, peptide on plate (10 ug/mL)
T2 sequence (peptide): EENMDDQWMQDAMEIGY

[10] = biological target: T3, Ala mutant SEQ ID NO: 28 (human); test: ELISA, peptide on plate (10 ug/mL)
T3 sequence (peptide): EANMDDQWMQDEMEIGY

[11] = biological target: T4, Ala mutant SEQ ID NO: 42 (human); test: ELISA, peptide on plate (10 ug/mL)
T4 sequence (peptide): EENMDDQWMQDEMEIAY

[12] = biological target: T5, Ala mutant having 3-amino acid substitution, SEQ ID NO: 48 (human); test: ELISA, peptide on plate (10 ug/mL)
T5 sequence (peptide): EENMDDQWMQDEAAAGY

[13] = biological target: T6, TA0096 (peptide antigen corresponding to positions 340 to 356 of PAD4) (human); test: ELISA, peptide on plate (10 ug/mL)
T6 sequence (peptide): EENMDDQWMQDEMEIGY

[14] = biological target: T7, Ala mutant SEQ ID NO: 39 (human); test: ELISA, peptide on plate (10 ug/mL)
T7 sequence (peptide): EENMDDQWMQDEAEIGY

[15] = biological target: T8, Ala mutant SEQ ID NO: 30 (human); test: ELISA, peptide on plate (10 ug/mL)
T8 sequence (peptide): EENADDQWMQDEMEIGY

[16] = biological target: T9, Ala mutant SEQ ID NO: 29 (human); test: ELISA, peptide on plate (10 ug/mL)
T9 sequence (peptide): EEAMDDQWMQDEMEIGY

[17] = biological target: T10, Ala mutant having 3-amino acid substitution, SEQ ID NO: 47 (human); test: ELISA, peptide on plate (10 ug/mL)
T10 sequence (peptide): EENMDDQWMAAAMEIGY

[18] = biological target: T11, Ala mutant SEQ ID NO: 27 (human); test: ELISA, peptide on plate (10 ug/mL)
T11 sequence (peptide): AENMDDQWMQDEMEIGY

[19] = biological target: T12, Ala mutant SEQ ID NO: 40 (human); test: ELISA, peptide on plate (10 ug/mL)
T12 sequence (peptide): EENMDDQWMQDEMAIGY

[20] = biological target: T13, Ala mutant SEQ ID NO: 43 (human); test: ELISA, peptide on plate (10 ug/mL)
T13 sequence (peptide): EENMDDQWMQDEMEIGA

[21] = biological target: T14, Ala mutant SEQ ID NO: 41 (human); test: ELISA, peptide on plate (10 ug/mL)
T14 sequence (peptide): EENMDDQWMQDEMEAGY

[22] = biological target: T15, Ala mutant having 3-amino acid substitution, SEQ ID NO: 46 (human); test: ELISA, peptide on plate (10 ug/mL)
T15 sequence (peptide): EENMDDAAAQDEMEIGY

[23] = biological target: T16, Ala mutant SEQ ID NO: 31 (human); test: ELISA, peptide on plate (10 ug/mL)
T16 sequence (peptide): EENMADQWMQDEMEIGY

[24] = biological target: T17, Ala mutant SEQ ID NO: 33 (human); test: ELISA, peptide on plate (10 ug/mL)
T17 sequence (peptide): EENMDDAWMQDEMEIGY

[25] = biological target: T18, Ala mutant having 3-amino acid substitution, SEQ ID NO: 44 (human); test: ELISA, peptide on plate (10 ug/mL)
T18 sequence (peptide): AAAMDDQWMQDEMEIGY

[26] = biological target: T19, Ala mutant having 3-amino acid substitution, SEQ ID NO: 49 (human); test: ELISA, peptide on plate (10 ug/mL)
T19 sequence (peptide): EENMDDQWMQDEMEIAA

[27] = biological target: T20, Ala mutant SEQ ID NO: 37 (human); test: ELISA, peptide on plate (10 ug/mL)
T20 sequence (peptide): EENMDDQWMQAEMEIGY

[28] = biological target: full-length recombinant mouse PAD4 (mouse) (UniProt Q9Z183); test: ELISA, mouse PAD4 on plate, antibody 6.104E-05 ug/mL

Chain of full-length recombinant mouse PAD4 (mouse) (Q9Z183 whole entry): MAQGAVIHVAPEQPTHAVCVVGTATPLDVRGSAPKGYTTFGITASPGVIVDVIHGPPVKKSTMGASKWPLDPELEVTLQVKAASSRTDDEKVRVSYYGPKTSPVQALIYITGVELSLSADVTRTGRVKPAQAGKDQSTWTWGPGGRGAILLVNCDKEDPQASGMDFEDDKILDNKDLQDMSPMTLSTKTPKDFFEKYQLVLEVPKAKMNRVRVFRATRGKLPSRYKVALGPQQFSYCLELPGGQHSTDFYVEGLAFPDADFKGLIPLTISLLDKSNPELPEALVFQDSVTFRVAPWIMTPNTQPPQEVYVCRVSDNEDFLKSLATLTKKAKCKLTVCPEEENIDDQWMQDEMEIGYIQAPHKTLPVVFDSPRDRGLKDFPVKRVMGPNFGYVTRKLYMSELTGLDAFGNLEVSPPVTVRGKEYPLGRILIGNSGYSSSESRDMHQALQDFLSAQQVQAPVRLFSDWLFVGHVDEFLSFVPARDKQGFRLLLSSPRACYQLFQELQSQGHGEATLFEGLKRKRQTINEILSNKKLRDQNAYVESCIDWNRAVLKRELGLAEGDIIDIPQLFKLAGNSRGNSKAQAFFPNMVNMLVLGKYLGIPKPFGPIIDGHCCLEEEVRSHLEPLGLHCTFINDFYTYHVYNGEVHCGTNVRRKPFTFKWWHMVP

absorbance 490 nm/630 nm [1]: 1.39 OD
absorbance 490 nm/630 nm [2]: 0.181 OD
absorbance 490 nm/630 nm [3]: 2.24 OD
absorbance 490 nm/630 nm [4]: 0.542 OD
absorbance 490 nm/630 nm [5]: 2.25 OD
absorbance 490 nm/630 nm [6]: 2.21 OD
absorbance 490 nm/630 nm [7]: 2.3 OD
absorbance 490 nm/630 nm [8]: 1.87 OD
absorbance 490 nm/630 nm [9]: 1.96 OD
absorbance 490 nm/630 nm [10]: 1.96 OD
absorbance 490 nm/630 nm [11]: 1.85 OD
absorbance 490 nm/630 nm [12]: 1.89 OD
absorbance 490 nm/630 nm [13]: 1.85 OD
absorbance 490 nm/630 nm [14]: 1.87 OD
absorbance 490 nm/630 nm [15]: 2.03 OD
absorbance 490 nm/630 nm [16]: 1.94 OD
absorbance 490 nm/630 nm [17]: 1.85 OD
absorbance 490 nm/630 nm [18]: 1.93 OD
absorbance 490 nm/630 nm [19]: 1.88 OD
absorbance 490 nm/630 nm [20]: 1.88 OD
absorbance 490 nm/630 nm [21]: 1.89 OD
absorbance 490 nm/630 nm [22]: 0.131 OD
absorbance 490 nm/630 nm [23]: 1.48 OD
absorbance 490 nm/630 nm [24]: 1.98 OD
absorbance 490 nm/630 nm [25]: 1.92 OD
absorbance 490 nm/630 nm [26]: 1.92 OD
absorbance 490 nm/630 nm [27]: 1.88 OD
absorbance 490 nm/630 nm [28]: 0.079 OD
B1: G9 (antibody, IgG1, V domains shown)
VH: AVTLDESGGGLQTPGGALSLVCKASGFTFSTYAMGWMRQAPGKGLEYVAAIRNDGSWTGYGAAVKGRATILRDNGQSTVRLQLSNLRAEDTGTYYCAKYTGSSGGSIGAWGHGTEVIVS
VL: AVTQPASVSANLGGTVEITCSGGGRYYYGWYQQKSPGSAPVTVIYANDKRPSDIPSRFSGSKSGSTGTLTITGVQAEDEAVYFCGSAETSSYVFGAGTTLTVL
